Test results reported in article PMC9784564 (2022).

Target: CoV-2-RBD of the SARS-CoV-2 Inhibitor Screening Kit (SARS-CoV-2, UniProt P0DTC2 319-541)
Experiment: ELISA

B1: CB79 (antibody, V domains shown)
VH: QVHLVQSGAEVKKPGASVKVSCKASGYTFTDYYMHWVRQAPGQGLEWMGRINPNSGGTNYPETLQGRVTMTTDTSTSTAYLEVRSLTPDDTAVYYCARVPYCSSTSCYSDWYFDLWGQGTLVTVSS
VL: DIVLTQSPLSLPVTPGETASISCRSSQSILDSDDGNTYLDWYLQKPGQSPQLLIYSLSYRASGVPDRFSASGSGTDFTLKISGVEAEDVGVYYCMQRIEFPLTFGGGTKLEIK
B1 gave an IC50 of 0.14 µg/mL.
